Consider two molecules from paper PMC5159831, “Harnessing the natural inhibitory domain to control TNFα Converting Enzyme (TACE) activity in vivo” (Scientific Reports, 2016).

Series [1] has as its target recombinant TACE catalytic domain. Briefly: cell-based or functional assay.
Series [2] deals with the molecule itself. Briefly: SDS-PAGE under non-reducing conditions; purified TPD; 40 kDa band = covalent (disulfide-linked) dimer, 20 kDa band = monomer.

Chain of recombinant TACE catalytic domain (P78536 215-671): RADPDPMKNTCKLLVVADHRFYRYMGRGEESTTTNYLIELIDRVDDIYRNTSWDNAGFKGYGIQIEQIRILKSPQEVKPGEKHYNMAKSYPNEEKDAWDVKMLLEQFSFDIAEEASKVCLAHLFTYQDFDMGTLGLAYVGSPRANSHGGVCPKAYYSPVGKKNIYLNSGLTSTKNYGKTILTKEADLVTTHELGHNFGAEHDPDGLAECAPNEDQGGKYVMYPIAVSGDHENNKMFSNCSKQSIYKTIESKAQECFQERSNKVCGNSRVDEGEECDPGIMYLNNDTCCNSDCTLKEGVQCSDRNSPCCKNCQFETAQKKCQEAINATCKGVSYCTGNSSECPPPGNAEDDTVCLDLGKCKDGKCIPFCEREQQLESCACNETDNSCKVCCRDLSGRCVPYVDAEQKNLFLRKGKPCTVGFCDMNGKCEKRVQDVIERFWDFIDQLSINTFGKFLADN

B1: TACE prodomain (TPD), wild type, Asp23-Arg214 (domain or fragment, human, UniProt P78536 23-214, looked up)
chain: DPGFGPHQRLEKLDSLLSDYDILSLSNIQQHSVRKRDLQTSTHVETLLTFSALKRHFKLYLTSSTERFSQNFKVVVVDGKNESEYTVKWQDFFTGHVVGEPDSRVLAHIRDDDVIIRINTDGAEYNIEPLWRFVNDTKDKRMLVYKSEDIKNVSRLQSPKVCGYLKVDNEELLPKGLVDREPPEELVHRVKR
notes: prodomain of human ADAM17/TACE, residues Asp23-Arg214; The methods say Asp24-Arg214, but the DNA fits Asp23; The WT runs as a disulfide-linked dimer without reducing agent; also called WT TPD; TPD WT; source: E. coli BL21 (DE3), pET28, soluble fraction, purified (Ni column, HiTrap Q, Superdex 75)
Turning to B1, the “IC50 of inhibition of the enzyme's hydrolysis of a fluorogenic peptide (10 nM TACE, Mca-PLAQAV-Dpa-RSSSR 10 μM, 37 °C, 30 min pre-incubation with TPD)” value in series [1] came out at 0.145 µM. For the same molecule, the “stoichiometry N” value in series [2] amounted to 2.

B2: TACE prodomain (TPD) C184A (domain or fragment, human, UniProt P78536 23-214, looked up)
chain: DPGFGPHQRLEKLDSLLSDYDILSLSNIQQHSVRKRDLQTSTHVETLLTFSALKRHFKLYLTSSTERFSQNFKVVVVDGKNESEYTVKWQDFFTGHVVGEPDSRVLAHIRDDDVIIRINTDGAEYNIEPLWRFVNDTKDKRMLVYKSEDIKNVSRLQSPKVAGYLKVDNEELLPKGLVDREPPEELVHRVKR
With B2, in series [1], the “IC50 of inhibition of the enzyme's hydrolysis of a fluorogenic peptide (10 nM TACE, 37 °C)” value came to 0.033 µM.
